Measured values from the RNAGym collection of RNA variant scans (doi:10.1073/pnas.2313332121).
Fewer inactive variants are shown than the library holds.

B1: TPR 5TU (parent)
chain: GGAUCUUCUCGAUCUAACAAAAAAGACAAAUCUGCCACAAAGCUUGAGAGCAUCUUCGGAUGCAGAGGCGGCAGCCUUCGGUGGCGCGAUAGCGCCAACGUUCUCAACUAUGACACGCAAAACGCGUGCUCCGUUGAAUGGAGUUUAUCAUG

Variants of: B1
Experiment: polymerase ribozyme fitness, log enrichment relative to wild type (log ratio); higher = more active; in vitro selection for triplet polymerase activity
In short: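 To select mutant libraries of each subunit of a heterodimeric triplet polymerase ribozyme, built by PCR and transcribed, each was annealed with a biotinylated primer, partner subunit and triplets, then incubated frozen at −7 °C. Extended constructs were gel-excised, captured on streptavidin beads and amplified by RT-PCR, in one round carried out in triplicate. Illumina sequencing of input and output libraries kept genotypes with ≥10 input reads and ≥1 read per output. Fitness is the base-2 logarithm of genotype enrichment relative to wild-type enrichment, from inverse-variance-weighted replicate averages.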

For C5G A37U A40U C95A U139A, which “polymerase ribozyme fitness (log ratio)” value is on record?
Its value is no more than -4.2.

For C5G C18A A23G C54G G67A C93G C99G, which “polymerase ribozyme fitness (log ratio)” value is on record?
The value was no more than -4.2.

Which “polymerase ribozyme fitness (log ratio)” value does the source give for C5G A17G here?
The value was -0.0409.

With C5G U78C G84A G136U as the variant, how does the “polymerase ribozyme fitness (log ratio)” value read?
Its value is -3.39.

With U4G U7G A49U C75G C93U as the variant, how does the “polymerase ribozyme fitness (log ratio)” value read?
Its value is no more than -4.2.

With C5A C14G A37U A52C C85G C99U G140U as the variant, how does the “polymerase ribozyme fitness (log ratio)” value read?
Its value is no more than -4.2.

Which “polymerase ribozyme fitness (log ratio)” value does the source give for C5G A12G A22U C38A U44G C75A C79U C93A G133U here?
Its value is no more than -4.2.

With C5G C96A G117A as the variant, how does the “polymerase ribozyme fitness (log ratio)” value read?
Its value is -0.406.

With U4G U33G C75A C87G U109A A113U G117U as the variant, how does the “polymerase ribozyme fitness (log ratio)” value read?
Its value is no more than -4.2.

With U4G C38A A47C C85G as the variant, how does the “polymerase ribozyme fitness (log ratio)” value read?
Its value is -3.7.

Which “polymerase ribozyme fitness (log ratio)” value does the source give for U4G C79A C93A here?
Its value is no more than -4.2.

Which “polymerase ribozyme fitness (log ratio)” value does the source give for C5A C57U C85U here?
The value was 0.39.

For C5G U53G C57A G80C A91U U144C, which “polymerase ribozyme fitness (log ratio)” value is on record?
The value was no more than -4.2.

Which “polymerase ribozyme fitness (log ratio)” value does the source give for U4G A16G C54U G62C G71A U101G C105U A142G U144A here?
The value was no more than -4.2.

For C5G A19C G42U C79U C105U G126U, which “polymerase ribozyme fitness (log ratio)” value is on record?
The value was no more than -4.2.

Which “polymerase ribozyme fitness (log ratio)” value does the source give for U4G A20C C43U U55A G59U A60G C87A A121G G141C here?
Its value is no more than -4.2.

Which “polymerase ribozyme fitness (log ratio)” value does the source give for U4G here?
Its value is -0.0773.

With C5G A120C as the variant, how does the “polymerase ribozyme fitness (log ratio)” value read?
Its value is -0.488.

Which “polymerase ribozyme fitness (log ratio)” value does the source give for U4G A20U C93G U109A A138G here?
Its value is no more than -4.2.

Which “polymerase ribozyme fitness (log ratio)” value does the source give for C5A G50A C105U C116A here?
The value was -1.3.

Which “polymerase ribozyme fitness (log ratio)” value does the source give for C5A C69G G84A C108U here?
Its value is -3.39.

For C5A A20C, which “polymerase ribozyme fitness (log ratio)” value is on record?
Its value is 0.413.

For C5G A23G G50C A52C C69G A119G, which “polymerase ribozyme fitness (log ratio)” value is on record?
The value was no more than -4.2.

Which “polymerase ribozyme fitness (log ratio)” value does the source give for U4G C76U G84A C95U U111G here?
The value was no more than -4.2.

With C5G C14G C43G A73G G92U A97C as the variant, how does the “polymerase ribozyme fitness (log ratio)” value read?
The value was no more than -4.2.

Which “polymerase ribozyme fitness (log ratio)” value does the source give for C5A C27U here?
Its value is -1.46.

With U4G A23U A26U C27G C63U U90G C93A C108U C114U C129G G140C as the variant, how does the “polymerase ribozyme fitness (log ratio)” value read?
The value was no more than -4.2.

Which “polymerase ribozyme fitness (log ratio)” value does the source give for C5A U78C A89U C95U here?
Its value is -1.72.

Which “polymerase ribozyme fitness (log ratio)” value does the source give for C5G U56A G84U U144A here?
The value was -3.4.

For C5G U55A, which “polymerase ribozyme fitness (log ratio)” value is on record?
The value was -0.729.

Which “polymerase ribozyme fitness (log ratio)” value does the source give for C5G G50A C87U C103G U111C C132U here?
Its value is no more than -4.2.

For U4G G11U G59A C93U C125U U144C, which “polymerase ribozyme fitness (log ratio)” value is on record?
The value was no more than -4.2.

For C5A C32A U56A C85U A113C, which “polymerase ribozyme fitness (log ratio)” value is on record?
The value was no more than -4.2.

For C5G U9C A97G G141C, which “polymerase ribozyme fitness (log ratio)” value is on record?
Its value is -3.27.

For C5A A16U A52G A106G, which “polymerase ribozyme fitness (log ratio)” value is on record?
The value was -3.09.

For C5G G71U, which “polymerase ribozyme fitness (log ratio)” value is on record?
Its value is -3.09.

For U4G A16C A28U C38U U55A C75G U111C A122U A142C, which “polymerase ribozyme fitness (log ratio)” value is on record?
The value was no more than -4.2.

Which “polymerase ribozyme fitness (log ratio)” value does the source give for C5G A89G C96U U135G here?
The value was no more than -4.2.

For C5A U15C U56A C105G A107C G117U U139C G143C U148C, which “polymerase ribozyme fitness (log ratio)” value is on record?
The value was no more than -4.2.

Which “polymerase ribozyme fitness (log ratio)” value does the source give for C5G G83A here?
Its value is -1.24.

For C5G A41G C85U C95U A122U C132A, which “polymerase ribozyme fitness (log ratio)” value is on record?
The value was -3.5.

For C5A A17U U45A G71C G84A A89U U104G U145G, which “polymerase ribozyme fitness (log ratio)” value is on record?
The value was no more than -4.2.

With C5G C93G as the variant, how does the “polymerase ribozyme fitness (log ratio)” value read?
The value was -2.51.

Which “polymerase ribozyme fitness (log ratio)” value does the source give for C5G C93U here?
Its value is -2.31.

Which “polymerase ribozyme fitness (log ratio)” value does the source give for C5A A30G C36U G68U G100A here?
Its value is no more than -4.2.

With U4G G58A C85U A115U U144G as the variant, how does the “polymerase ribozyme fitness (log ratio)” value read?
Its value is -2.13.

For C5A A12C G42A G68C C79A G83A C108G, which “polymerase ribozyme fitness (log ratio)” value is on record?
The value was no more than -4.2.

For C5G C14G C96A, which “polymerase ribozyme fitness (log ratio)” value is on record?
Its value is -2.31.

With C5G C96U as the variant, how does the “polymerase ribozyme fitness (log ratio)” value read?
The value was -0.763.

With U4G A19U C43U C87U A98G as the variant, how does the “polymerase ribozyme fitness (log ratio)” value read?
The value was no more than -4.2.

With C5G A40C C69A G70U A89C as the variant, how does the “polymerase ribozyme fitness (log ratio)” value read?
Its value is no more than -4.2.

With C5G A20G C51U A106G as the variant, how does the “polymerase ribozyme fitness (log ratio)” value read?
The value was -1.64.

For U4G A29C C75A C96U A115U U148A, which “polymerase ribozyme fitness (log ratio)” value is on record?
The value was -3.99.

Which “polymerase ribozyme fitness (log ratio)” value does the source give for C5A U77A C87A here?
Its value is no more than -4.2.

Which “polymerase ribozyme fitness (log ratio)” value does the source give for C5G C10U A49G U56A G74C C85U U90G C93U G100U A115C G141A here?
Its value is no more than -4.2.

Which “polymerase ribozyme fitness (log ratio)” value does the source give for C5A G81A here?
The value was 0.566.

With C5G C38U A39C C95A G100C as the variant, how does the “polymerase ribozyme fitness (log ratio)” value read?
Its value is no more than -4.2.

With U4G U6G C85U G141A as the variant, how does the “polymerase ribozyme fitness (log ratio)” value read?
Its value is -3.39.

For C5A C54U U55A C95G C96A, which “polymerase ribozyme fitness (log ratio)” value is on record?
Its value is -4.05.

Which “polymerase ribozyme fitness (log ratio)” value does the source give for U4G A41U A91C A97U here?
Its value is no more than -4.2.

For C5G G11A A73G C76U, which “polymerase ribozyme fitness (log ratio)” value is on record?
Its value is -2.17.

With C5A C85G C105U as the variant, how does the “polymerase ribozyme fitness (log ratio)” value read?
The value was -1.21.

With C5A A47U G84A G124U as the variant, how does the “polymerase ribozyme fitness (log ratio)” value read?
The value was -1.14.

Which “polymerase ribozyme fitness (log ratio)” value does the source give for C5A A26G A115G here?
The value was no more than -4.2.

Which “polymerase ribozyme fitness (log ratio)” value does the source give for C5G A19G A24C A40U U55A G83U G86U here?
Its value is no more than -4.2.

For C5A U45C A64U C75A G141C U145C A150U, which “polymerase ribozyme fitness (log ratio)” value is on record?
Its value is no more than -4.2.

With U4G C8G A23C A52G C54G G74C as the variant, how does the “polymerase ribozyme fitness (log ratio)” value read?
Its value is no more than -4.2.

With C5A A16U G46C G84U A91G U109C A115U G136C as the variant, how does the “polymerase ribozyme fitness (log ratio)” value read?
Its value is no more than -4.2.

Which “polymerase ribozyme fitness (log ratio)” value does the source give for C5A G92A here?
Its value is -1.42.

With U4G U56A A60C C76G A91C C95U A142C as the variant, how does the “polymerase ribozyme fitness (log ratio)” value read?
The value was no more than -4.2.

For U4G A89C C131A, which “polymerase ribozyme fitness (log ratio)” value is on record?
The value was -3.28.

With C5G G94C U101G as the variant, how does the “polymerase ribozyme fitness (log ratio)” value read?
The value was -2.68.

With C5A G42C as the variant, how does the “polymerase ribozyme fitness (log ratio)” value read?
Its value is -4.02.

For C5G A17G A26C A40U U82G C87U C118G C129A C131A G141C, which “polymerase ribozyme fitness (log ratio)” value is on record?
The value was no more than -4.2.

Which “polymerase ribozyme fitness (log ratio)” value does the source give for C5G A91U here?
Its value is no more than -4.2.

With U4G G25A U45G C87A C99A C103U C105G U139G G143A as the variant, how does the “polymerase ribozyme fitness (log ratio)” value read?
Its value is -4.11.

Which “polymerase ribozyme fitness (log ratio)” value does the source give for U4G G50C A73G U102C here?
Its value is no more than -4.2.

For C5G C8G C85A G126U, which “polymerase ribozyme fitness (log ratio)” value is on record?
The value was no more than -4.2.

For C5A G86C G92U, which “polymerase ribozyme fitness (log ratio)” value is on record?
Its value is -3.93.

For C5A U9G A73G C87U A120U C123U A147G, which “polymerase ribozyme fitness (log ratio)” value is on record?
The value was -3.95.

Which “polymerase ribozyme fitness (log ratio)” value does the source give for C5G A20U C35U G50U C93U here?
Its value is -3.76.

For C5A C38U A66C C72U C79A C96A G117A, which “polymerase ribozyme fitness (log ratio)” value is on record?
Its value is no more than -4.2.

With U4G C5G A29G A52U G67U C79G G83A as the variant, how does the “polymerase ribozyme fitness (log ratio)” value read?
The value was no more than -4.2.

With C5A C14G G94C G143A as the variant, how does the “polymerase ribozyme fitness (log ratio)” value read?
The value was -4.07.
